Experimental data taken from PMC10502159 (2023).
Blank lines part the entries; values can stand above or below the binder they belong to.

Tests used:
TLR4 1-631 [1] = biological target: T1, TLR4 1-631 (Homo sapiens, UniProt O00206); assay: SPR
RAGE 1-344 = RAGE 1-344 (Homo sapiens, UniProt Q15109); assay: SPR
TLR4 1-631 [2] = biological target: T1, TLR4 1-631; assay: SPR (steady state)

T1 sequence (O00206 1-631): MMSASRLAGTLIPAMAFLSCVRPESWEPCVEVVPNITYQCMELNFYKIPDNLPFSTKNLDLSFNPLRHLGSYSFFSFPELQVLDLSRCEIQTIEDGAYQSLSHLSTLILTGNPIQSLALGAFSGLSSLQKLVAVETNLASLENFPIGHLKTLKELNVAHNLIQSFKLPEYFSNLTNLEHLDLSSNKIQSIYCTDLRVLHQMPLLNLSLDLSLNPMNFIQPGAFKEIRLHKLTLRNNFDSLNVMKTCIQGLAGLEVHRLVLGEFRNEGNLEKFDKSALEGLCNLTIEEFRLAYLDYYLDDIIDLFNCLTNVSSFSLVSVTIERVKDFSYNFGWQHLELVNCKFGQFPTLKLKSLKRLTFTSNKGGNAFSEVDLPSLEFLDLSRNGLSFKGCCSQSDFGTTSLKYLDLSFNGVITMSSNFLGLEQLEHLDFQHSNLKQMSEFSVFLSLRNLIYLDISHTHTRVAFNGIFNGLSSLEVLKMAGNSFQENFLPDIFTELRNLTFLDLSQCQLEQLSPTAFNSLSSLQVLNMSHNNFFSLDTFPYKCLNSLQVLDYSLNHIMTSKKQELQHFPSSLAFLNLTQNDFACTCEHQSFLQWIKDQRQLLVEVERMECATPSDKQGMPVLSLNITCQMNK
RAGE 1-344, sequence (Q15109 1-344): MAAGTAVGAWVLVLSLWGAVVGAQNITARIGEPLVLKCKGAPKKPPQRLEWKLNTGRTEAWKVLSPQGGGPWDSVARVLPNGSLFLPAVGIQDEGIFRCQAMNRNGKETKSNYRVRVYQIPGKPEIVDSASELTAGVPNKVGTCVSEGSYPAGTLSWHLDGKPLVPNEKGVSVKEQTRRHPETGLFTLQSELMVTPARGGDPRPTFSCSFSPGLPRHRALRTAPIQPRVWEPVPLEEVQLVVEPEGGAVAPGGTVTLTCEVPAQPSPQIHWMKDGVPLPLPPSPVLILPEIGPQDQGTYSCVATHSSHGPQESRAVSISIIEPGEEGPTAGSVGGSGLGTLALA

Kd (TLR4 1-631 [1]): 1140 nM
Kd (RAGE 1-344): 30.4 nM
B1: procathepsin L (pCTS-L) 17-333 (protein)
chain: ATLTFDHSLEAQWTKWKAMHNRLYGMNEEGWRRAVWEKNMKMIELHNQEYREGKHSFTMAMNAFGDMTSEEFRQVMNGFQNRKPRKGKVFQEPLFYEAPRSVDWREKGYVTPVKNQGQCGSCWAFSATGALEGQMFRKTGRLISLSEQNLVDCSGPQGNEGCNGGLMDYAFQYVQDNGGLDSEESYPYEATEESCKYNPKYSVANDTGFVDIPKQEKALMKAVATVGPISVAIDAGHESFLFYKEGIYFEPDCSSEDMDHGVLVVGYGFESTESDNNKYWLVKNSWGEEWGMGGYVKMAKDRRNHCGIASAASYPTV
modifications: mAb20 pre-exposed

Kd (TLR4 1-631 [1]): 20.3 nM
Kd (RAGE 1-344): 3.1 nM
B2: procathepsin L (pCTS-L) 17-333 (protein)
chain: B1 chain
modifications: control c-mAb pre-exposed

Kd (TLR4 1-631 [2]): < 28.3 nM
B3: procathepsin L (pCTS-L) 17-333 (protein)
chain: B1 chain
